Laboratory results from paper PMC7374964 (BMC Biology, 2020).

Key:
Details in all cases: one partner purified
[1] = molecular target: T1, HIV-1 ADA Env on CEM-NKR cells infected with the Nef- and Vpu-defective virus (NL4.3 GFP ADA/Nef-Vpu-), with … (HIV-1 ADA (Env clone not named); Homo …, UniProt Q6TAN8;P01730, strain); experiment: flow cytometry on cells
T1 construct: also called ADA/N-U- infected cells; pNL43/ADA/N-U- infected CEM-NKR target cells; copies: 3 + 3 +

[2] = molecular target: T2, HIV-1 JRFL Env on pseudovirus particles treated with the CD4 mimetic peptide M48U1 (HIV-1 JRFL, UniProt Q75760, strain); experiment: fluorescence correlation spectroscopy (FCS)
T2 construct: copies: 3 + 3 +

[3] = molecular target: T3, HIV-1 BaL Env on pseudovirus particles treated with the CD4 mimetic peptide M48U1 (HIV-1 BaL (Env clone not named), UniProt Q2MKA8, strain); experiment: fluorescence correlation spectroscopy (FCS)
T3 construct: source: HIV-1 BaL pseudoviruses [72] treated for 90 min at 37 °C with 200 ug/ml of M48U1; copies: 3 + 3 +

[4] = molecular target: T4, HIV-1 BaL Env on free pseudovirus particles (HIV-1 BaL (Env clone not named), UniProt Q2MKA8, strain); experiment: fluorescence correlation spectroscopy (FCS)
T4 construct: copies: 3 + 3

[5] = molecular target: T5, HIV-1 JRFL Env on free pseudovirus particles (HIV-1 JRFL, UniProt Q75760, strain); experiment: fluorescence correlation spectroscopy (FCS)
T5 construct: copies: 3 + 3

Measured: binding result

B1: mAb X5 (antibody, V domains shown)
VH: VQLLEQSGAEVKKPGSSVQVSCKASGGTFSMYGFNWVRQAPGHGLEWMGGIIPIFGTSNYAQKFRGRVTFTADQATSTAYMELTNLRSDDTAVYYCARDFGPDWEDGDSYDGSGRGFFDFWGQGTLVTVSS
VL: ELVLTQSPGTLSLSAGERATLSCRASQSVSSGSLAWYQQKPGQAPRLLIYGASTRATGIPDRFSGSGSGTDFTLTIGRLEPEDLAVYYCQQYGTSPYTFGQGTKLEIK
notes: source: generated in house [15]
binds: all assays above
